# Measurements published in the supplement of paper PMC11780869.
# System: Bacillus subtilis
# Test: cleaved RNA product abundance (RNA/gDNA barcode ratio) relative to median wild-type variant (ratio to wild type); higher = more accumulation of the downstream cleavage product
# How it was run: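 Sequencing of barcodes from gel-selected, reverse-transcribed cleaved RNA and from genomic DNA, with UMI collapsing, yielded a per-construct RNA:gDNA ratio. Scaled to the median construct with the unmutated site, this ratio is the cleaved product abundance. The barcoded reporters (truncated aprE or tetM mRNAs with mutagenized RNase Y cleavage-site windows) were integrated into the B. subtilis chromosome, and cultures grew in LB at 37°C from OD600 0.0003 to 0.3.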
# [1] = experiment (reporter, strain, medium): exp 2b: truncated aprE reporter, strain BJT200, cleavage site: cggR-gapA (positions -7 to +36 mutated)
# [2] = experiment (reporter, strain, medium): exp 4a: truncated aprE reporter, strain BJT201 with 2% xylose (RNase J1 expressed), cleavage site: cggR-gapA (positions -7 to +36 mutated)
# [3] = experiment (reporter, strain, medium): exp 8a: truncated aprE reporter, strain BJT201 with 2% xylose (RNase J1 expressed), cleavage site: glnRA (positions -5 to +31 mutated)
# [4] = experiment (reporter, strain, medium): exp 6: tetM reporter, strain 168, cleavage site: cggR-gapA (positions -7 to +36 mutated)
Sequence,cleaved RNA product abundance [1],cleaved RNA product abundance [2],cleaved RNA product abundance [3],cleaved RNA product abundance [4]
ACAGACGAAGGAGCCGCAAAGAAGTTATTAAGAGATGAAAAATCCCTCAATATAAATATCTCTCACTTATTTAAA,0.119,0.18,,
CGACATGTCCCGCTTCTTTCATTAATCCGTTATCAACTATTTTGCTATATACATTTACCTTTTAAGAGGAGGAAT,,,0.276,
ACAGACGAAGGAGCCGCAAAGAAGTCATTAAGGAATGAATAATCCCTCAATATAAATATCTCTCACTTATTTAAA,0.0849,0.139,,
ACAGACGAAGGAGCCGCTAAGAAGTTATTAAGGGATGAATAATCCCTCAATATAAATATCTCTCACTTATTTAAA,1.04,0.985,,1.03
ACAGACGAAGGAGCCGCAAAGAAGTTATTAAGTGATCAATAATCCCTCAATATAAATATCTCTCACTTATTTAAA,0.0674,0.137,,
CGACATGTCCCGCTTCTTTCATTAATCCGTCAGCAACTGTTTTGCTATATACATTTACCTTTTAAGAGGAGGAAT,,,0.406,
ACAGACGAAGGAGCCGCAAAGAAGTTATTCAGGGATGAATAATCCATCAATATAAATATCTCTCACTTATTTAAA,,0.319,,
ACAGACGAAGGAGCCGCAAAGTAGTTATTAAGGTATGAATAATCCCTCAATATAAATATCTCTCACTTATTTAAA,,0.0907,,
ACAGACGAAGGAGCCGCAAAGGAGTTATTAAGTGATGAATAATCCCTCAATATAAATATCTCTCACTTATTTAAA,,0.162,,
ACAGACGAAGGAGCCGCAAAGAAGTTATTAAGGGATGAATAGTCCCTCATTATAAATATCTCTCACTTATTTAAA,,0.235,,
ACAGACGAAGGAGCCGCACAGAAGTTAATAAGGGATGAATAATCCCTCAATATAAATATCTCTCACTTATTTAAA,,0.309,,
ACAGACGAAGGAGCCGCAAAGAAGTTATTAAGGGATGAATAATCCCTCTATATAAATATCTCTCACTTATTTAAA,0.42,0.489,,0.642
CGACATGTCCCGCTTCTTTCATTAATCCGTTAGAAACTGTTTTGCTATAAACATTTACCTTTTAAGAGGAGGAAT,,,0.203,
ACAGACGAAGGAGCCGCAAAGAAGTTATTTAGGGATGAATAATCCCTCAATATAATTATCTCTCACTTATTTAAA,,0.52,,
ACAGACGAAGGAGCCGCAAAGAAGTTATTAAGCGATGAATAATCCCTTAATATAAATATCTCTCACTTATTTAAA,,0.301,,
ACAGACGAAGGAGCCGCAAAGAATTTATTAAGGGATGAATAATCACTCAATATAAATATCTCTCACTTATTTAAA,0.134,0.119,,
ACAGACGAAGGAGCCGCAAACAAGTTATGAAGGGATGAATAATCCCTCAATATAAATATCTCTCACTTATTTAAA,,0.239,,
CGACATGTCCCGCTTCTTTCATTAATCCGTAACCAACTGTTTTGCTATATACATTTACCTTTTAAGAGGAGGAAT,,,0.187,
ACAGACGAAGGAGCCGCAAAGAAGTTATTAAGGGACGAATAATCCCTCAATATAAATATCTCTCACTTATTTAAA,0.691,0.697,,0.805
CGACATGTCCCGCTTCTTTCATTAAACCGTTTGCAACTGTTTTGCTATATACATTTACCTTTTAAGAGGAGGAAT,,,0.331,
CGACATGTCCCGCTTCTTTCATTAATCAGTTAGCAACTGTTTTGCTATATACATTTACTTTTTAAGAGGAGGAAT,,,0.903,
ACAGACGAAGGAGCCGCAAAGAATTTATTAAGGGATGAATAATCGCTCAATATAAATATCTCTCACTTATTTAAA,0.105,0.0604,,
CGACATGTCCCGCTTCTTTCATTAATCCGTTAGAATCTGTTTTGCTATATACATTTACCTTTTAAGAGGAGGAAT,,,0.239,
ACAGACGAAGGAGCCGCAAAGAAGTTATTTAGGGATGAATAATCCCTCAATATAAACATCTCTCACTTATTTAAA,,0.701,,
CGACATGTCCCGCTTCTTTCATTAATCCGTTAGCAACTGTTTTGCTATAAACATTTATCTTTTAAGAGGAGGAAT,,,0.717,
